Results on two compounds are retold here after paper PMC6643271 (Biochemistry, 2018).

Holding throughout (details): 10 mM ATP, 14 mM MgCl2, 100 mM KCl, pH 8.0, 25 °C
The target in series [1] is Cj1418 (L-glutamine kinase) (Campylobacter jejuni, UniProt Q0P8J6).
In series [2] the test system is N[C@@H](CCC(=O)NO)C(=O)O. The experiment in a line: purified protein.
The subject of series [3] is NNC(=O)CC[C@H](N)C(=O)O. The experiment in a line: purified protein.
The subject of series [4] is NC(=O)CC[C@@H](N)C(=O)O. The experiment in a line: purified protein.

Cj1418 (L-glutamine kinase), sequence (Q0P8J6 whole entry): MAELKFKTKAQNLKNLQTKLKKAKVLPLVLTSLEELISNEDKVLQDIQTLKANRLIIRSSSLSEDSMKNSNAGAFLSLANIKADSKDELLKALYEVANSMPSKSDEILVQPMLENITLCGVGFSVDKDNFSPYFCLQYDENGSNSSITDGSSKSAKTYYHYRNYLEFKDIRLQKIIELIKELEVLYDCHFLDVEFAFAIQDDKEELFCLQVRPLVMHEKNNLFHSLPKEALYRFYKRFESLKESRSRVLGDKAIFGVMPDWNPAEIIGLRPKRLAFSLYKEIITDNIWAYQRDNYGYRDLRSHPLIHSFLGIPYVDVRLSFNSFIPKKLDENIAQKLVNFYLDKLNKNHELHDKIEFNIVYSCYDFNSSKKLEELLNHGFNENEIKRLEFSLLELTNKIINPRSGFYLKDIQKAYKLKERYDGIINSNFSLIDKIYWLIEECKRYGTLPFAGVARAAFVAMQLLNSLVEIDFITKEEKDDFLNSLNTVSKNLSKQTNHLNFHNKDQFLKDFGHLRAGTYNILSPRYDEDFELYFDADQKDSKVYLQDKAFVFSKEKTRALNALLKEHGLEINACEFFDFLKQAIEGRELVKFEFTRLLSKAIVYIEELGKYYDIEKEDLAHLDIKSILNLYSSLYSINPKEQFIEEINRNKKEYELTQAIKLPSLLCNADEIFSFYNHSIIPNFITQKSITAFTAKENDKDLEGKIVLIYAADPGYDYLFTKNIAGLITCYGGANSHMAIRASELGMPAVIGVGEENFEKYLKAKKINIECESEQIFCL

Usually Km stands for the concentration of substrate that gives half-maximal velocity. Regarding `NC(=O)CC[C@H](N)C(=O)O` [compound 1, L-glutamine], the Km in series [1] turned out to be 640 ± 60 µM.
Usually kcat stands for the number of substrate molecules converted per active site and unit of time at saturation. One may read the kcat/Km as the second-order rate constant that governs catalysis at low substrate concentration. As for “Cj1418 (L-glutamine kinase) (Campylobacter jejuni subsp. jejuni NCTC 11168 = ATCC 700819)”, the Km in series [2] is 1500 ± 400 µM; in series [3], 17200 ± 3800 µM; in series [4], 10500 ± 1800 µM. Besides, the kcat in series [2] amounted to 2.1 ± 0.2 s⁻¹; in series [3] it was 0.41 ± 0.05 s⁻¹; in series [4], 1.5 ± 0.1 s⁻¹. Moreover, the kcat/Km was found to be 1400 ± 360 M⁻¹ s⁻¹ in series [2], 24 ± 6 M⁻¹ s⁻¹ in series [3] and 140 ± 30 M⁻¹ s⁻¹ in series [4].
